Test results: the RNAGym collection of RNA variant scans (doi:10.1021/acssynbio.7b00057)

B1: Pistol ribozyme (parent)
chain: GGGUCGUUGUUCCAUAAUCGCGUGGAUAUGGCACGCAAGUUUCUACCGGGCACCGUAAAUGUCCGACUGGAGCCGUUCGGGCGGCUAUAAACAGACCUCAGGCCCGAAGCGUGGCGGCACCUGCCGCCGGUGGUAAAAAAGAUCGGAAGAGCACACGUCU

Variants of: B1
Experiment: aptazyme ON/OFF ratio, guanine; higher = stronger switching; co-transcriptional cleavage with and without guanine

Row | Variant | aptazyme ON/OFF ratio
1 | U7C U8A U10G U11A C12U | 1.16
2 | U7C U8A U10G U11A C12A | 1.22
3 | U7C U8A U10G U11A C12G | 1.33
4 | U7C U8A U10A U11G C12A C13U | 1.19
5 | U7C U8A U10A U11G C12A C13A | 1.12
6 | U7C U8A U10A U11G C12A C13G | 1.17
7 | U7C U8A U10A C12U C13A | 1.22
8 | U7C U8A U10A C12U C13U | 1.3
9 | U7C U8A U10A C12U C13G | 1.18
10 | U7C U8A U10C C13A | 1.09
11 | U7C U8A U10C C13G | 1.22
12 | U7C U8A U10C C13U | 3.34
13 | U7C U8A U10C U11C C13A | 1.04
14 | U7C U8A U10C U11C C13U | 1.01
15 | U7C U8A U10C U11C C13G | 1.09
16 | U7C U8A U10A | 1.1
17 | U7C U8A U10G | 1.37
18 | U7C U8A U10C | 1.76
19 | U7C U8A U10A U11C C12A C13G | 1.06
20 | U7C U8A U10A U11C C12A C13A | 1.06
21 | U7C U8A U10A U11C C12A C13U | 1.06
22 | U7C U8A U10C U11G C12A | 1.1
23 | U7C U8A U10C U11G C12U | 1.17
24 | U7C U8A U10C U11G C12G | 1.37

Row | Variant | aptazyme ON/OFF ratio
25 | U7C U8A U10A U11C C12U C13A | 1.08
26 | U7C U8A U10A U11C C12U C13G | 1.04
27 | U7C U8A U10A U11C C12U C13U | 1.04
28 | U7C U8A U10C U11G C12G C13G | 1.08
29 | U7C U8A U10C U11G C12G C13A | 1.15
30 | U7C U8A U10C U11G C12G C13U | 1.08
31 | U7C U8A U10C U11G C12U C13U | 1.35
32 | U7C U8A U10C U11G C12U C13G | 1.16
33 | U7C U8A U10C U11G C12U C13A | 1.28
34 | U7C U8A G9U U11G C13U | 1.17
35 | U7C U8A U10C C12A | 1.41
36 | U7C U8A U10C C12G | 1.63
37 | U7C U8A U10C C12U | 3.73
38 | U7C U8A U10A U11A | 1.14
39 | U7C U8A U10A U11C | 1.05
40 | U7C U8A U10A U11G | 1.22
41 | U7C U8A U10C U11G C12A C13A | 1.16
42 | U7C U8A U10C U11G C12A C13G | 1.21
43 | U7C U8A U10C U11G C12A C13U | 1.14
44 | U7C U8A U10A U11G C12G C13U | 1.24
45 | U7C U8A U10A U11G C12G C13A | 1.03
46 | U7C U8A U10A U11G C12G C13G | 1.13
47 | U7C U8A U10A U11G C12G | 1.19
48 | U7C U8A U10A U11G C12A | 1.06

Row | Variant | aptazyme ON/OFF ratio
49 | U7C U8A U10A U11G C12U | 1.24
50 | U7C U8A U10G C12G C13A | 1.13
51 | U7C U8A U10G C12G C13U | 1.41
52 | U7C U8A U10G C12G C13G | 1.15
53 | U7C U8A U10C U11A C12A C13G | 1.17
54 | U7C U8A U10C U11A C12A C13U | 1.14
55 | U7C U8A U10C U11A C12A C13A | 1.2
56 | U7C U8A U10A C12A | 1.3
57 | U7C U8A U10A C12U | 1.13
58 | U7C U8A U10A C12G | 1.19
59 | U7C U8A U10G U11A C13A | 1.11
60 | U7C U8A U10G U11A C13G | 1.17
61 | U7C U8A U10G U11A C13U | 1.07
62 | U7C U8A U10C U11G C13A | 1.17
63 | U7C U8A U10C U11G C13U | 1.16
64 | U7C U8A U10C U11G C13G | 1.1
65 | U7C U8A U10G U11A C12G C13A | 1.12
66 | U7C U8A U10G U11A C12G C13G | 1.18
67 | U7C U8A U10G U11A C12G C13U | 1.29
68 | U7C U8A U10C C12U C13U | 1.54
69 | U7C U8A U10C C12U C13A | 1.17
70 | U7C U8A U10C C12U C13G | 1.17
71 | U7C U8A U10A U11C C13A | 1.03
72 | U7C U8A U10A U11C C13U | 1.01

Row | Variant | aptazyme ON/OFF ratio
73 | U7C U8A U10A U11C C13G | 1.04
74 | U7C U8A U10A U11A C13G | 1.19
75 | U7C U8A U10A U11A C13U | 1.17
76 | U7C U8A U10A U11A C13A | 1.17
77 | U7C U8A U10C U11C C12A | 1.17
78 | U7C U8A U10C U11C C12U | 1.09
79 | U7C U8A U10C U11C C12G | 1.25
80 | U7C U8A U10G U11A C12U C13U | 1.33
81 | U7C U8A U10G U11A C12U C13G | 1.24
82 | U7C U8A U10G U11A C12U C13A | 1.3
83 | U7C U8A U10G C12A C13U | 1.27
84 | U7C U8A U10G C12A C13G | 1.07
85 | U7C U8A U10G C12A C13A | 1.2
86 | U7C U8A U10A U11C C12A | 1.09
87 | U7C U8A U10A U11C C12G | 1.13
88 | U7C U8A U10A U11C C12U | 1.01
89 | U7C U8A U10G C13A | 1.52
90 | U7C U8A U10G C13G | 1.14
91 | U7C U8A U10G C13U | 1.28
92 | U7C U8A U10C U11A C12U C13G | 1.17
93 | U7C U8A U10C U11A C12U C13U | 1.16
94 | U7C U8A U10C U11A C12U C13A | 1.16
95 | U7C U8A U10G U11C C12A | 1.62
96 | U7C U8A U10G U11C C12G | 1.53

Row | Variant | aptazyme ON/OFF ratio
97 | U7C U8A U10A C13A | 1.07
98 | U7C U8A U10A C13G | 1.08
99 | U7C U8A U10A C13U | 1.06
100 | U7C U8A U10A C12G C13G | 1.22
101 | U7C U8A U10A C12G C13A | 1.32
102 | U7C U8A U10A C12G C13U | 1.26
103 | U7C U8A U10C C12G C13U | 1.31
104 | U7C U8A U10C C12G C13A | 1.19
105 | U7C U8A U10C C12G C13G | 1.16
106 | U7C U8A U10A U11A C12U C13G | 1.35
107 | U7C U8A U10A U11A C12U C13A | 1.23
108 | U7C U8A U10A U11A C12U C13U | 1.13
109 | U7C U8A U10G U11A C12A C13A | 1.14
110 | U7C U8A U10G U11A C12A C13U | 1.24
111 | U7C U8A U10G U11A C12A C13G | 1.08
112 | U7C U8A U10C U11C C12G C13G | 1.12
113 | U7C U8A U10C U11C C12G C13U | 1.09
114 | U7C U8A U10C U11C C12G C13A | 1.2
115 | U7C U8A U10C U11G | 1.34
116 | U7C U8A U10C U11A | 1.16
117 | U7C U8A U10C U11C | 1.05
118 | U7C U8A U10A U11C C12G C13G | 1.22
119 | U7C U8A U10A U11C C12G C13U | 1.13
120 | U7C U8A U10A U11C C12G C13A | 1.15

Row | Variant | aptazyme ON/OFF ratio
121 | U7C U8A U10G U11C C12A C13G | 1.11
122 | U7C U8A U10G U11C C12A C13A | 1.37
123 | U7C U8A U10G U11C C12A C13U | 1.45
124 | U7C U8A U10G C12U C13A | 1.34
125 | U7C U8A U10G C12U C13G | 1.13
126 | U7C U8A U10G C12U C13U | 1.24
127 | U7C U8A U10C U11A C12G C13A | 1.14
128 | U7C U8A U10C U11A C12G C13G | 1.25
129 | U7C U8A U10C U11A C12G C13U | 1.09
130 | U7C U8A U10C U11C C12U C13U | 1.06
131 | U7C U8A U10C U11C C12U C13G | 1.05
132 | U7C U8A U10C U11C C12U C13A | 1.06
133 | U7C U8A U10A U11G C13A | 1.15
134 | U7C U8A U10A U11G C13G | 1.04
135 | U7C U8A U10A U11G C13U | 1.21
136 | U7C U8A U10G U11C | 1.07
137 | U7C U8A U10G U11A | 1.06
138 | U7C U8A U10C U11A C13A | 1.12
139 | U7C U8A U10C U11A C13G | 1.15
140 | U7C U8A U10C U11A C13U | 1.16
141 | U7C U8A U10A C12A C13A | 1.17
142 | U7C U8A U10A C12A C13U | 1.15
143 | U7C U8A U10A C12A C13G | 1.21
144 | U7C U8A U10C U11C C12A C13U | 1.27

Row | Variant | aptazyme ON/OFF ratio
145 | U7C U8A U10C U11C C12A C13A | 1.18
146 | U7C U8A U10C U11C C12A C13G | 1.27
147 | U7C U8A U10A U11A C12G | 1.2
148 | U7C U8A U10A U11A C12A | 1.15
149 | U7C U8A U10A U11A C12U | 1.26
150 | U7C U8A U10C C12A C13G | 1.07
151 | U7C U8A U10C C12A C13A | 1.17
152 | U7C U8A U10C C12A C13U | 1.24
153 | U7C U8A U10C U11A C12G | 1.2
154 | U7C U8A U10C U11A C12A | 1.27
155 | U7C U8A U10C U11A C12U | 1.19
156 | U7C U8A U10A U11G C12U C13U | 1.2
157 | U7C U8A U10A U11G C12U C13G | 1.29
158 | U7C U8A U10A U11G C12U C13A | 1.18
159 | U7C U8A U10A U11A C12A C13G | 1.17
160 | U7C U8A U10A U11A C12A C13A | 1.25
161 | U7C U8A U10A U11A C12A C13U | 1.31
162 | U7C U8A U10G C12U | 1.34
163 | U7C U8A U10G C12G | 1.34
164 | U7C U8A U10G C12A | 1.21
165 | U7C U8A U10A U11A C12G C13A | 1.23
166 | U7C U8A U10A U11A C12G C13G | 1.31
167 | U7C U8A U10A U11A C12G C13U | 1.23
